19 molecules from US20130274178A1 (PHILADELPHIA HEALTH AND EDUCATION CORPORATION D B A DREXEL …, published 2013) can be followed below.

Sequences and labels used below:
B1: UM16 (peptide)
peptide: RINNI[Azp‑triazole‑ferrocene]
notes: also called RINNIP
B2: UM22 (peptide)
peptide: RNNI[Azp‑triazole‑ferrocene]WS
notes: also called RNNIPWS
B3: UM28 (peptide)
peptide: FNNI[Azp‑triazole‑ferrocene]WS-NH2
notes: Rink amide resin; also called FNNIPWS
B4: UM27 (peptide)
peptide: KNNI[Azp‑triazole‑ferrocene]WS
notes: also called KNNIPWS
B5: UM23 (peptide)
peptide: ENNI[Azp‑triazole‑ferrocene]WS-NH2
notes: Rink amide resin; also called ENNIPWS
B6: UM33 (peptide)
peptide: ENI[Azp‑triazole‑ferrocene]WS
notes: also called ENIPWS
B7: UM32 (peptide)
peptide: RNI[Azp‑triazole‑ferrocene]WS
notes: also called RNIPWS
B8: UM10 (peptide)
peptide: [Azp‑triazole‑ferrocene]WSEAMM
notes: also called PWSEAMM
B9: UM12 (peptide)
peptide: RINNI[Azp‑triazole‑ferrocene]W
notes: also called RINNIPW
B10: UM21 (peptide)
peptide: INNI[Azp‑triazole‑ferrocene]WS-NH2
notes: Rink amide resin; also called INNIPWS
B11: UM31 (peptide)
peptide: NNI[Azp‑triazole‑ferrocene]WS-NH2
notes: Rink amide resin; also called NNIPWS
B12: UM35 (peptide)
peptide: INI[Azp‑triazole‑ferrocene]WS-NH2
notes: Rink amide resin; also called INIPWS
B13: UM15 (peptide)
peptide: INNI[Azp‑triazole‑ferrocene]W-NH2
notes: Rink amide resin; also called INNIPW
B14: UM11 (peptide)
peptide: RINNI[Azp‑triazole‑ferrocene]WS-NH2
notes: Rink amide resin
B15: UM13 (peptide)
peptide: EINNI[Azp‑triazole‑ferrocene]WS-NH2
notes: Rink amide resin
B16: UM24 (peptide)
peptide: XNNIPWS
modifications: not fully specified; residue 1 is citrulline (Cit); proline 5 is a 1,2,3-triazole-modified proline (Azp) 4-substituted with ferrocene
notes: Rink amide resin; also called CitNNIPWS
B17: HNG-156 (peptide)
peptide: RINNIPWSEAMM
modifications: proline 6 is a 1,2,3-triazole-modified proline (from cis-4-azidoproline, Azp) 4-substituted with ferrocene
B18: UM17 (peptide)
peptide: NNI[Azp‑triazole‑ferrocene]W
notes: also called NNIPW
B19: UM41 (peptide)
peptide: NI[Azp‑triazole‑ferrocene]WS
notes: also called NIPWS

Where no end group is shown, it is not given here. [ ]: non-standard residue; d: D form. Where only a bound is given, the exact number is not on record here.

In one test the target is T1, HIV-1YU2 gp120 (HIV-1 strain YU-2, UniProt P35961 32-498, limits assumed).
T1 construct: domain: gp120
Kind of test: SPR direct binding; YU-2 gp120 immobilized (~3500 RU), peptide as analyte.
Procedure: Surface plasmon resonance (SPR) interaction analyses were performed on a Biacore® 3000 optical biosensor (GE). All experiments were carried out at 25° C. using standard PBS, pH 7.4, with 0.005% Surfactant P20.
Regeneration of the surface was achieved by a one 5-second pulse of 10 mM glycine, pH 1.5.
As usually defined, the Kd is a measure of binding affinity in units of concentration. Turning to B1, the Kd was > 10 µM.

The koff is the rate constant with which the complex falls apart. A lower koff goes with slow dissociation. A word on the kon: it is the second-order rate constant of association. Lower therefore signals slow association. With B2, the koff came out at 0.0068 s⁻¹ and the kon worked out at 510000 M⁻¹ s⁻¹.

For the molecule B3, the koff was 0.0043 s⁻¹ and the kon was 380000 M⁻¹ s⁻¹.

In turn, B4 yielded a koff of 0.0088 s⁻¹ and a kon of 590000 M⁻¹ s⁻¹.

Take B5: the koff came out at 0.0034 s⁻¹ and the kon was 130000 M⁻¹ s⁻¹.

In turn, B6 yielded a koff of 0.0018 s⁻¹ and a kon of 1100 M⁻¹ s⁻¹.

Molecule B7 showed a koff of 0.0031 s⁻¹ and a kon of 3300 M⁻¹ s⁻¹.

In the next test the target is HIV-1BaL envelope glycoprotein on pseudotyped virus (HIV-1 strain BaL). Briefly: cell-based or functional assay.
On to B8, for which the “IC50 (µM), pseudotyped HIV-1BaL infection of HOS.CD4.CCR5 cells” value (“IC50 (µM) … of HOS.CD4.CCR5 cells” for short) turned out to be 35 µM.

Turning to B9, the “IC50 (µM) … of HOS.CD4.CCR5 cells” value turned out to be 6.8 µM.

For the molecule B10, the “IC50 (µM) … of HOS.CD4.CCR5 cells” value was 7.4 µM.

In the case of B2, the “IC50 (µM) … of HOS.CD4.CCR5 cells” value turned out to be 11 µM.

With B3, the “IC50 (µM) … of HOS.CD4.CCR5 cells” value turned out to be 13 µM.

Consider B4, for which the “IC50 (µM) … of HOS.CD4.CCR5 cells” value came to 23 µM.

Consider B5, for which the “IC50 (µM) … of HOS.CD4.CCR5 cells” value worked out at 5.8 µM.

B11: the “IC50 (µM) … of HOS.CD4.CCR5 cells” value is 36 µM.

For B12, the “IC50 (µM) … of HOS.CD4.CCR5 cells” value amounted to 17 µM.

Consider B13, for which the “IC50 (µM) … of HOS.CD4.CCR5 cells” value came to 6.9 µM.

As for B14, the “IC50 (µM) … of HOS.CD4.CCR5 cells” value amounted to 4 µM.

Take B15: the “IC50 (µM) … of HOS.CD4.CCR5 cells” value is 1.2 µM.

For the next test, the target named is HIV-1 gp120 on envelope-pseudotyped luciferase-reporter virus (strain not stated, Example 8) (HIV-1, strain ). Kind of test: cell-based or functional assay.
As for B9, the “IC50 (µM), pseudotype virus cell infection assay” value amounted to 12.5 µM.

In the case of B10, the “IC50 (µM), pseudotype virus cell infection assay” value amounted to 7.4 µM.

With B3, the “IC50 (µM), pseudotype virus cell infection assay” value stood at 11 µM.

Turning to B5, the “IC50 (µM), pseudotype virus cell infection assay” value is 6.6 µM.

Regarding B11, the “IC50 (µM), pseudotype virus cell infection assay” value is 10 µM.

B12: the “IC50 (µM), pseudotype virus cell infection assay” value turned out to be 17 µM.

As for B13, the “IC50 (µM), pseudotype virus cell infection assay” value stood at 7.2 µM.

For the molecule B16, the “IC50 (µM), pseudotype virus cell infection assay” value was 4.9 µM.

In the case of B14, the “IC50 (µM), pseudotype virus cell infection assay” value came out at 10.7 µM.

Consider B15, for which the “IC50 (µM), pseudotype virus cell infection assay” value was 3.2 µM.

Another test concerns the target T2, HIV-1 92UG037-08 gp120 (HIV-1 strain 92UG037-08).
T2 construct: domain: gp120; also called 92UG037-08 (A); 92Ugo37-08 gp120
Kind of test: SPR direct binding; gp120 immobilized, peptide as analyte.
Procedure: (§1) All surface plasmon resonance experiments (SPR) were performed on a BIA3000 optical biosensor (Biocore, Inc., Uppsala, Sweden). […] The indicated analytes were passed over the surfaces at a flow rate of 50 μL/minute, with 2.5 minute association phase and 2.5 minute dissociation phase.
Data analysis was performed using BIAEvaluation® 4.0 software (Biacore Inc., NJ). The responses of a buffer injection and responses from the control surface to which the mAb 2B6R was immobilized, were subtracted to account for nonspecific binding. Experimental data were fitted to a simple 1:1 Langmuir binding model with a parameter included for mass transport. The average kinetic parameters (association [kₐ] and dissociation [kd] rates) generated from a minimum of four datasets were used to define equilibrium association (KA) and dissociation constants (KD).
Turning to B17, the Kd came to 0.0163 µM.

A further test concerns the target T1, HIV-1YU2 gp120. Kind of test: competition ELISA: mAb 17b (0.1 µg/ml) with peptide on plate-coated YU-2 gp120; blocked ligand mAb 17b (the UM10 curve that is not diamonds).
For the molecule B8, the “IC50 (read off the curve)” value is ~0.2 µM.

The next test concerns the target T1, HIV-1YU2 gp120. Kind of test: competition ELISA: sCD4 (0.1 µg/ml) with peptide on plate-coated YU-2 gp120; blocked ligand sCD4 (diamonds per the legend). On the technique in general: ELISA stands for enzyme-linked immunosorbent assay.
Take B8: the “IC50 (read off the curve)” value was ~2 µM.

The next test has as its target T1, HIV-1YU2 gp120. Kind of test: SPR competition; gp120 binding to mAb 17b; Example 8, Table 9.
The term IC50 denotes the concentration at which inhibition is half-maximal. Take B11: the IC50 was 16 µM.

A further test has as its target T1, HIV-1YU2 gp120. Briefly: competition ELISA: IgG b12 with UM17 on immobilized YU-2 gp120; blocked ligand b12.
Take B18: the “IC50 (read off the curve)” value is ~3 µM.

Another test concerns the target T1, HIV-1YU2 gp120. Briefly: SPR direct binding, YU2 gp120 (Example 8); Example 8 determination.
B16 showed a Kd of 0.021 µM.

Another test addresses T3, soluble four domain CD4 (sCD4) (UniProt P01730 26-394, limits assumed).
T3 construct: domain: soluble four domain CD4; also called soluble CD4
Briefly: SPR, immobilized sCD4. On the technique in general: SPR reads the build-up and loss of mass on a sensor chip optically.
B17: the binding result is given as “no binding (tested: 10 to 600 nM)”.

The next test concerns the target T1, HIV-1YU2 gp120. Kind of test: ITC; peptide titrated into gp120, 25 °C, PBS pH 7.4.
Procedure: The solutions contained within the calorimetric cells and injector syringes were prepared in PBS, pH 7.4 and thoroughly degassed to avoid bubble formation in the calorimetric cell. The heat evolved upon each injection of the peptide solution was obtained from the integral of the calorimetric signal. The heat associated with binding of a ligand to the protein in the cell was obtained by subtracting the heat of dilution from the heat of reaction. Heats of dilution due to mismatch between the syringe and cell solutions were negligible in all experiments.
Consider B18, for which the “-TΔS” value came out at 3.3 kcal/mol and the ΔH is -13.2 kcal/mol.

For the molecule B9, the “-TΔS” value stood at 9.9 kcal/mol and the ΔH was -19.7 kcal/mol.

For B11, the “-TΔS” value worked out at 4.1 kcal/mol and the ΔH is -13.8 kcal/mol.

For the molecule B13, the “-TΔS” value came to 6.6 kcal/mol and the ΔH was -16.6 kcal/mol.

Take B16: the “-TΔS” value is 6.3 kcal/mol and the ΔH is -16.7 kcal/mol.

In another test the target is T1, HIV-1YU2 gp120. Briefly: ELISA and SPR competition; gp120 binding to sCD4.
On to B8, for which the IC50 is > 10 µM.

The target of another test is T3, soluble four domain CD4 (sCD4). Kind of test: SPR, sCD4 surface.
Consider B8, for which the binding result is “no binding”.

On to B9, for which the binding result is “no binding”.

In another test the target is T1, HIV-1YU2 gp120. Kind of test: ITC; peptide titrated into gp120, 25 °C, PBS pH 7.4; ITC, 25° C. in PBS, pH 7.4. Background: In ITC the heat of successive injections is recorded.
Procedure: Data was obtained as 25° C. in PBS, pH 7.4.
The solutions contained within the calorimetric cells and injector syringes were prepared in PBS, pH 7.4 and thoroughly degassed to avoid bubble formation in the calorimetric cell. The heat evolved upon each injection of the peptide solution was obtained from the integral of the calorimetric signal. The heat associated with binding of a ligand to the protein in the cell was obtained by subtracting the heat of dilution from the heat of reaction.
With B19, the “-TΔS” value was -1.6 kcal/mol and the ΔH was -6.1 kcal/mol.

In the next test the target is T1, HIV-1YU2 gp120. Briefly: SPR direct binding; YU-2 gp120 immobilized (~3500 RU), peptide as analyte; Example 9; SPR direct binding, peptide over immobilized gp120.
On to B12, for which the Kd is > 10 µM.

The next test deals with T1, HIV-1YU2 gp120. Briefly: SPR competition; gp120 binding to mAb 17b.
Procedure: as §1
B9 showed an IC50 of 0.218 µM.

The molecule B2 returned an IC50 of 0.181 µM.

As to B3, the IC50 amounted to 0.174 µM.

In turn, B4 yielded an IC50 of 0.197 µM.

B5 registered an IC50 of 0.165 µM.

Consider B14, for which the IC50 was 0.168 µM.

In a further test the target is T1, HIV-1YU2 gp120. Kind of test: SPR competition; gp120 binding to CD4.
Procedure: as §1
Molecule B9 had an IC50 of 0.124 µM.

Molecule B10 registered an IC50 of 0.086 µM.

Take B2: the IC50 was 0.123 µM.

B3 had an IC50 of 0.105 µM.

On to B4, for which the IC50 came out at 0.128 µM.

B5 had an IC50 of 0.088 µM.

Turning to B11, the IC50 worked out at 5 µM.

With B16, the IC50 came out at 0.081 µM.

B15 returned an IC50 of 0.079 µM.
